Test system: xanthine oxidase
Test: In vitro enzyme activity of xanthine oxidase in a protein matrix array piece (Sigma Enzymatic Assay of Superoxide Dismutase protocol, spectrophotometer)
Format: biochemical
Conditions: absorbance measured at 550 mm, cytochrome C and other reactants, no enzyme activity produces 0.00000 change

## xanthine oxidase
  enzyme activity of xanthine oxidase (change in absorbance): 0.0250 delta absorbance/min
